Assay results from publication PMC10107491, “Phosphorylation of S11 in PHR1 negatively controls its transcriptional activity”.

Target: PHR1 S11A-His (UniProt Q94CL7 1-409, S11A)
Test: EMSA; without SnRK1; 10 mM Tris-HCl pH 8.0, 100 mM NaCl, 10% glycerol, 2 mM DTT, 0.05% NP-40; 0.5 ug protein in 30 ul, 22 C, 30 min; 4.5% acrylamide gel, 0.5x TBE
Conditions: protein: recombinant; tags: His (pET28b(+)); chain copies: 2; label: 32P 5' end label on sense strand (T4 PNK); blunt

Sequence of PHR1 S11A-His (Q94CL7 whole entry S11A): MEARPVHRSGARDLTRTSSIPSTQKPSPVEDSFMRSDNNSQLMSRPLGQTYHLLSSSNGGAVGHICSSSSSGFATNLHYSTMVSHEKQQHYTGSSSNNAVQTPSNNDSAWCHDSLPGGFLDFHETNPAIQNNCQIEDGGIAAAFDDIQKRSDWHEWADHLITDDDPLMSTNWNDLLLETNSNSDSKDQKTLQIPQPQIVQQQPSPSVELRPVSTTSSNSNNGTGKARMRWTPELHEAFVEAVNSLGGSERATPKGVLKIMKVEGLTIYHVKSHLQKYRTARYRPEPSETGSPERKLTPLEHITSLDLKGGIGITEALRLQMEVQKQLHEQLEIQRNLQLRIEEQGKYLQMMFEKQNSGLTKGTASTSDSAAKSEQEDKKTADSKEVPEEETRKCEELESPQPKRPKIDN

B1: AtIPS1 P1BS probe (dsDNA)
DNA 1: CAATTTTGGTAACGGCATATTCCATCGGATGATCCAAAATTCTCAAAA
DNA 2: TTTTGAGAATTTTGGATCATCCGATGGAATATGCCGTTACCAAAATTG
binding result: binds
